In the DeepSol protein solubility set:

Assay: soluble on expression in E. coli; label from the status in PepcDB or PDB records

MGSDKIHHHHHHMTLPEPDFIARDPAVITAELIAQYEQMSGKTLYPAQVERLLIDLMAYRETLVRVGIQEAAKQNLVAYARAPMLDYLGQLVGVTRLPAQPARATLRFTLDAPLASPLPIPAGTRVESGDGVVAFATDEAATLPAGRTSLEIAATCQDAGSAGNGWQPGQIVNLMDDLGDMDVVVTNTAVTAGGVDEEDDERLRERIMLAPESFSNAGSRQAYRFHALRAHQSIVDVAVLSPTPGVVQLYPLLKTGLPDANMLALVQATCSAERVRPLTDYVEALAPTAIDYAIDVRLTVYPDVDGKAVKTQAQERLQAYAAERAGALGRDIVPSQIIAAVQVPGVYQATVASPGLQQVPEHGWARCTGVSVTLEGVSHG
soluble on expression in E. coli: not soluble

MTGRTGGNGSTQAQPERVMLVGVMLDKDGTGSSAARLNGFQTALAEAVELVKAAGGDSVRVETAKRDRPHTALFVGTGKAAELSEAVAADGIDLVVFNHELTPTQERNLEKELKCRVLDRVGLILAIFARRARTQEGRLQVELAQLSHLAGRLIRGYGHLQSQRGGIGMKGPGETKLETDRRLIAHRINALKKQLANLKKQRALRRKSRESGTIKTFALVGYTNVGKSSLFNRLTKSGIYAKDQLFATLDTTARRLYISPECSIILTDTVGFVSDLPHKLISAFSATLEETAQADVLLHVVDAAAPNSGQQIEDVENVLQEIHAGDIPCIKVYNKTDLLPSEEQNTGIWRDAAGKIAAVRISVAENTGIDALREAIAESCAAAPNTDETEMPLEHHHHHH
soluble on expression in E. coli: soluble

MGSDKIHHHHHHMATKHEQILQYITNLEVGEKISVRRIAKDLQVSEGTAYRAIKEAENQGLVSTIERVGTIRIEKKQKENIEKLTYAEVVNIVDGQVLGGRDGLHKTLNRFVIGAMKLDAMMRYVEPGNLLIVGNRYQVHQIALEAGAAVLITGGFDTSDEAIKLADELDLPVISTSYDTFTVATMINRAIYDQLIKKEITLVDDILIPLQDTYYMTTENVVGKWHELNEKTGHSRYPVIDENMKIQGMVAAKDVLNASRHTPIEKVMTKNPITVSERTSVAAVAHVMVWEGIELLPVIDSHRKLIGVVSRQDVLKALQMIQRQPHVGETIEDLMTNGLNESSSDQGDSYEVEITPQMTNQLGTISHGVMTSLVIESGSRVLRKYKKGDLVVENITLYFLKPVQIDSRLTIRPRVLEIGRKHGKIDVEMYHEGEIVGKALFMAQIID
soluble on expression in E. coli: not soluble

MYNVMITGAGKIGSLIACLLADSGSYQVHLADLEFNGSDVTRLLTALPEIKTVALDVKDEQSTQAYLQKHNIIAVISSLPYFLNTHVAKAAKAAKAHYFDLTEDTSVTEAVKAIAQNAETAFVPQCGLAPGFISIAANSLMQEFEKCHHARLRVGALPQRANNALHYSLTWSTDG
soluble on expression in E. coli: not soluble

MIQFKDSYKHYGANGREVTALQPLNLEIRAGEVFGIIGHSGAGKSTMLRMINRLEEPSGGHLLINGQDITVLDRMGLRALRRQIGMIFQHFNLLSSYTVAGNVAFPLKLTGASDAKINARVAELLAWVGLEAHANTYPAQLSGGQKQRVGIARALATRPQILLCDEVTSALDPQTTSTVLQLLARINRELGLTIVLITHEMDVIRRICDRVAVLDTGRLVEIGLVTDVFLHPQHPTTRSFVMETEHIDTSALDQDFALVKGRIVRLTFIGTDTYLPLLGRVARETGVDYNILSGRIDRIKETPYGQLTVALSGGDPVAAQAAFAAAGIHIEELRA
soluble on expression in E. coli: not soluble

MSEIVVSKFGGTSVADFDAMNRSADIVLSDANVRLVVLSASAGITNLLVALAEGLEPGERFEKLDAIRNIQFAILERLRYPNVIREEIERLLENITVLAEAAALATSPALTDELVSHGELMSTLLFVEILRERDVQAQWFDVRKVMRTNDRFGRAEPDVAALAELAALQLLPRLNEGLVITQGFIGSENKGRTTTLGRGGSDYTAALLAEALHASRVDIWTDVPGIYTTDPRVVSAAKRIDEIAFAEAAEMATFGAKVLHPATLLPAVRSDIPVFVGSSKDPRAGGTLVCNKTENPPLFRALALRRNQTLLTLHSLNMLHSRGFLAEVFGILARHNISVDLITTSEVSVALTLDTTGSTSTGDTLLTQSLLMELSALCRVEVEEGLALVALIGNDLSKACGVGKEVFGVLEPFNIRMICYGASSHNLCFLVPGEDAEQVVQKLHSNLFE
soluble on expression in E. coli: not soluble

QMLVNKARLANLNVSLEEKVMQRTVVLSEANHKLQQTVRQYEQSQQELRQTQQELTQAAKLALLGELSASINHEINQPLAALRTYTENSQRLLSMERYPMVADNLNKMLSLNETIAEVIARLKVFTRKTSHEPHNEVSILHDAVHNATSILSNKLIKQGVTLKVPTIDHEVRLAIHSVE
soluble on expression in E. coli: not soluble

MQNIFDPLIIRGKSLIPIVQGGMGVGVSASGLSSAVARENGIGTIASVDLRHLHEDLLAESQINPSEEKYTSLNCTALDREIQKAKSASEGKGLIAVNVMKAVKDHAAYVRQACESGADAVVMGAGLPLDLPEMTEGYHKDVALLPILSESRGINIVLKRWMKKGILPDAIVVEHPAHAAGHLGASTVEGVNDAKFDFKRVIEETFEVFKNLGLEGEKIPLILAGGMANFEKVKTALKNWGASAVQIGTAFAVTEEGDAHLNFKKTLASAETEKVVEFMSVAGLPARGIRTKFLDSYIRREGKLQANAKADPRRCTQGLNCLTSCGLRDGLSKAGQFCIDIQLAAAFRGEVDKGLFFRGKDQLPFGNAIRTVRETIQYLLTGSEPVATLGR
soluble on expression in E. coli: not soluble

MKSFVLFALFSVAAAQFGGYGRGRGGPGGPGGFEGGPAGAGGFQGNGAGELTYEAKGRLICGLTGVDKVRVVLWDRFRGRENIIYDETNTDVVGNFRLRATRNGFDGNLIQPFLTIYHDCDDASTPGLRKMTVQLPPQYTNQGSLALKSFDIGTWNLETSFAGEELEIQNGGLGGRPIGGSSFGQGNRGQFGGNREIFAHGGRSDFGDSSISV
soluble on expression in E. coli: not soluble

MGSDKIHHHHHHMPANDFVSPDSIRAQFSAAMSLMYKQEVPLYGTLLELVSEINQQVMAQQPEVAEALRWTGEIERLDQERHGAIRVGTAEELATIARLFAVMGMQPVGYYDLSSAGVPVHSTAFRAVHEQSLHVSPFRVFTSLLRLELIDNPQLRELAQSILAKRQIFTSRALELIAQCEREGGLDAADAETFVQEALHTFRWHQDATVTAEQYQQLHDQHRLIADVVAFKGPHINHLTPRTLDIDAIQLGMPAKGIPPKAVVEGPPTRRHPILLRQTSFKALQETVAFRDQQGREGSHTARFGEIEQRGAALTPKGRQLYDKLLDATRVALGGAPAEANAERYMALLQANFAEFPDDLAQMREQGLAYFRYFATEKGLAARDQEGRPTTLQGLIDAGHVHFEALVYEDFLPVSAAGIFQSNLGDDAQAEYGSNANREAFEAALGLQVQDELALYAQSERRSLQACAQALNLGSM
soluble on expression in E. coli: not soluble

MSLKYSSTTADYLQWSEAMNLIRKLARDSNYKMSLLIALGCFTGLRISDILALRWNQILDAEEFTIIEIKTGKQRTIRINMQLQQHIRDCYEHINPVGINAPVLISQKGTVYTVQRINVMLKEIKKKYKLQIGNFSCHSLRKTFGRQVYNMNSDNSELALVKLMELFNHSSVSITKRYLGLRQEELLNTYDCLSF
soluble on expression in E. coli: not soluble

MGDWMIENKVRDVVKKLKPYVPGKSKEEIARAYGIKPEDIIKLGSNENPWGPSPKIKEKILDEIDKIHQYPEPVNPILMKELSKFLNVDEENIIVGGDGADEIIDTIFRTFVDDGDEVIIPIPTFTQYRVSATIHNAKIKYAKYDKEKDFKLNVESVLNNITDKTKVIFLCTPNNPTGNIIENRDVERVINETDALVVIDHAYIEYAKKEYDWTQKAPEYDNVIVLRTFSKVFGLAGMRVGYGVANKKIIDYMMRVKPIFSLTRLSQVCAITALRDREFFERCVRDGIKSREMLYNGLKKFKDIKVYPSEANYLLVELKTMKAKEFCEELLKRGVIVRDCTSFDGLGDNYVRVSIGTFEEVERFLKILEEIIS
soluble on expression in E. coli: not soluble

MNVEQQYIDLFSQTEAMICKHSAEVLNAPRAAAFADFERLGFPTRKMEKYKYTDISKYFEPDYGLNLNRLQIPVNPYEVFKCDVPNMSTALYFVVNDAFYNKALPKTHLPEGVIFGSLKEVAAEHPELVKKYYGKLADTSKDGITAFNTAFAQDGVIFYVPKNVIVEKPIQLVNILRADVNFMVNRRVLIILEDGAQARLLICDHAMDNVNFLATQVIEVFAGENAVFDMYELEETHTSTVRISNLYVKQEANSNVLLNGMTLHNGTTRNTTEVLLAGEGAEINLCGMAIADKNQHVDNNTSIDHAVPNCTSNELFKYVLDDQSTGAFAGLVLVRPDAQHTNSQQTNRNLCATRDARMYTQPQLEIYADDVKCSHGATVGQLDENALFYMRARGIAEKEARLLLMFAFVNEVIDTIRLDALKDRLHLLVEKRFRGELNKCQGCAICK
soluble on expression in E. coli: not soluble

MTYLLLDYFDEKFPDEKAVKEMKPFRRHRWFFKEGTTNYSHSERNKLPEGAAYAGHRTPLISGECKVYGCWPNGYDNVGEEEWAKIPTDARQKFKAALNDTAEIVVSGIECRRSFQYIDDKLLSAMDNYSELEKLPVAYSFSATKFYPSLIPFLETRWTATKLDWKNHGQNNLDLSRTHLREITLDGEGLKSVSLPESCRTISFSSTLSPELKVYSPDGGSNLTLKIELEADHVPDVGLPQLEILVLDRAVKLDLLPVTNLYPNLYYLRICGKPGYLSNISSLRNLKTLEVLSLEEIFGFTAEEFPTPGTCPLLNTLWMESIPEEAGKQIKKKYKGKITELDIRKLRKPEWLAENLDNPLRHWDGSEFVPPAKFKKAVVIYRNARRDALVAANQYLIDRDAALLQNRLEQTGKEFVIAFNKLDGKSGFIETEEREDLCAAFQVILDAVDSSVNFLGFTMNHDRIWEIMNEHRDW
soluble on expression in E. coli: not soluble

MMLFSNLIKENQKIWNAYLHHDFVKKLEDKSLKQENFLFYLKQDYIYLLNYAKCYARLALNSNTAKELRFAMKFQNYIVEGEMELHRAILSLGINADELDIKDESLVNIAYSRYMLSVGENGDFLDMLVALSACAIGYAKIGAEIINRLKNENLKDHPYKEWILTYGSENFQNEAKEFEDFVNSYTSSVGAQKFQKLSEIFHTVTRLEVAFWEHSLRMELNLLEHHHHHH
soluble on expression in E. coli: soluble

MAHHHHHHMRTSPLWRLRMTSRPLSLERVFVINLDRRPDRWAAIQAVCARAGLPAERTERVPAVEGSRLDVNAVHHCGFVSALGLRRLKEPPEHHIWGMDLNKAALGCALSHIHLWARIAALGKVSNISAEAPAATLPKQCFLVLEDDSTFADSDDNGSDSPAASPSLPFLDQLQRRMNSVPPDWELVYVSGLDTAKQCLHMQVAKGVARVPQYHRTTNAYLVTPQGARRLLATCVPLTFQLDTAMTMNVGYPPGVVGVAGAQTLPHVLDPVCYTLQPPLMQQAAQLDTDIQH
soluble on expression in E. coli: soluble

PHMQPFDSGHDDLVHDVVYDFYGRHVATCSSDQHIKVFKLDKDTSNWELSDSWRAHDSSIVAIDWASPEYGRIIASASYDKTVKLWEEDPDQEECSGRRWNKLCTLNDSKGSLYSVKFAPAHLGLKLACLGNDGILRLYDALEPSDLRSWTLTSEMKVLSIPPANHLQSDFCLSWCPSRFSPEKLAVSALEQAIIYQRGKDGKLHVAAKLPGHKSLIRSISWAPSIGRWYQLIATGCKDGRIRIFKITEKLSPLASEESLTNSNMFDNSADVDMDAQGRSDSNTEEKAELQSNLQVELLSEHDDHNGEVWSVSWNLTGTILSSAGDDGKVRLWKATYSNEFKCMSVITAQQ
soluble on expression in E. coli: soluble

MSSEEQDVKIVTSDDVEFIVSPKIANQSKLLADFVVLNQREPIPLKNVTSEIFKKVIEWCEYHAEDIPKPPDNVEEKRTDDIGEWDVEFLKVDKGTLFELVLAATYLDIKGLFNVTCKSIANSIKGKSPEEIRAVFNLGNETNME
soluble on expression in E. coli: not soluble

RLLLNGDGTPVGGAWNFDAENRKALPKGVAAPYPMRFSADAITRDVLTLVAERFASHYGSLDTFDYPVTQADAQALWEYFLDFGLAGFGDYQDAMATDEPFLFHARISAALNIGLLDLRQICSDVESAYWSGRVALNAAEGFIRQLIGWREYVRGVYWLKM
soluble on expression in E. coli: not soluble
